Experimental data: paper PMC4319933, “Insights into the Cellular Function of YhdE, a Nucleotide Pyrophosphatase from Escherichia coli” (PLoS ONE, 2015)

B1: YhdE, a Maf-like protein in Escherichia coli (nucleotide pyrophosphatase) (enzyme, UniProt P25536 1-197, looked up)
chain: MTSLYLASGSPRRQELLAQLGVTFERIVTGIEEQRQPQESAQQYVVRLAREKARAGVAQTAKDLPVLGADTIVILNGEVLEKPRDAEHAAQMLRKLSGQTHQVMTAVALADSQHILDCLVVTDVTFRTLTDEDIAGYVASDEPLDKAGAYGIQGLGGCFVRKINGSYHAVVGLPLVETYELLSNFNALREKRDKHDG
notes: YhdE, Maf-like protein of Escherichia coli; the open reading frame of yhdE cloned into pFO4 (BamHI/EcoRI); also called recombinant YhdE; source: E. coli BL21(DE3), purified (Ni2+ chelation, size-exclusion chromatography)
B2: YhdE (Escherichia coli K-12) (protein)
chain: TSLYLASGSPRRQELLAQLGVTFERIVTGIEEQRQPQESAQQYVVRLAREKARAGVAQTAKDLPVLGADTIVILNGEVLEKPRDAEHAAQMLRKLSGQTHQVMTAVALADSQHILDCLVVTDVTFRTLTDEDIAGYVASDEPLDKAGAYGIQGLGGCFVRKINGSYHAVVGLPLVETYELLSNFNALREKRDKHDG
notes: dimer in solution ~45 kDa, monomer ~22 kDa; PDB entries are of the E33A mutant

Key:
[1] = biological target: the molecule itself; experiment: SEC; size-exclusion chromatography after Ni2+ chelation; Bis-Tris buffer, pH 6.75; YhdE eluted at approximately 81 mL, approximately 45 kDa
[2] = substrate: Cc1cn([C@H]2C[C@H](O)[C@@H](COP(=O)(O)OP(=O)(O)OP(=O)(O)O)O2)c(=O)[nH]c1=O; experiment: purified protein; type: biochemical, Escherichia coli; conditions: 2 mM Mn2+, 20 mM HEPES pH 7.0, 25 °C, 1.5 µM enzyme, apparent Km, Hill coefficient 2.2 (positive cooperativity)
[3] = substrate: O=c1ccn([C@@H]2O[C@H](COP(=O)(O)OP(=O)(O)OP(=O)(O)O)[C@@H](O)[C@H]2O)c(=O)[nH]1; experiment: purified protein; type: biochemical, Escherichia coli; conditions: 2 mM Mn2+, 20 mM HEPES pH 7.0, 25 °C, 1.5 µM enzyme, apparent Km, Hill coefficient 1.9 (positive cooperativity)

Protein | stoichiometry N [1] | Km [2] [µM] | Vmax [2] [µM/min] | kcat [2] [s⁻¹] | kcat/Km [2] [M⁻¹ s⁻¹] | Km [3] [µM] | Vmax [3] [µM/min] | kcat [3] [s⁻¹] | kcat/Km [3] [M⁻¹ s⁻¹]
B1 | 2 |  |  |  |  |  |  |  | 
B2 |  | 90 | 3600 | 43 | 503000 | 500 | 8400 | 95 | 191000
